{
  "source": "patent US20130071390A1",
  "about": "(Merck Sharp & Dohme, published 2013)",
  "binders": {"B1": {"name": "anti-PCSK9 double mutein antibody F243A/V264A produced in GFI6.0 (antibody, human IgG1, kappa)", "heavy": "not shown", "light": "DIQMTQSPSSLSASVGDRVTITCKASQNVGTNVVWYQQKPGKAPKALIHSASYRYSGVPSRFSGSGSGTDFTLTISSLQPEDFATYYCQQYKTYPYTFGQGTKVEIKRTVAAPSVFIFPPSDEQLKSGTASVVCLLNNFYPREAKVQWKVDNALQSGNSQESVTEQDSKDSTYSLSSTLTLSKADYEKHKVYACEVTHQGLSSPVTKSFNRGEC"}},
  "key": {"[1]": {"target": "T1, histidine-tagged extracellular domain of human Fc gamma receptor IIb/c (Pichia pastoris produced) (human, UniProt P31994 46-217)", "T1 construct": "also called FcγRIIb/c; FcγRIIb", "T1 sequence": "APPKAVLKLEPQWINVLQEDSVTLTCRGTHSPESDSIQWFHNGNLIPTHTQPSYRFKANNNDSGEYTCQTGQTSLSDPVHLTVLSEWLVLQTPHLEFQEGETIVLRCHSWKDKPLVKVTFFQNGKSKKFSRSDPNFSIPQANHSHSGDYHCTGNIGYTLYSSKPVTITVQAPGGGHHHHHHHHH", "assay": "FcγR ELISA, receptor coated on plate", "procedure": "(§1) High protein binding 96-well plates (Corning Costar, Lowell, Mass.) were coated with 100 μl per well of Fcγ receptor solutions in PBS at the following concentrations: 1 μg/mL for FcγRI (R & D Systems) and FcγRIIa (Pichia pastoris produced), 2 μg/mL for FcγRIIb/c (P. pastoris produced), 0.4 μg/mL for FcγRIIIa-V158, and 0.8 μg/mL for FcγRIIIa-F158 (both P. pastoris produced).\n(§2) For FcγRI, the antibody was coated in assay diluent (1% BSA, PBS, 0.05% Tween20) in monomeric form. For all other receptors, the antibody was coated after dimerization with alkaline phosphatase conjugated anti-human IgG F(ab′)₂ (Jackson ImmunoResearch, West Grove, Pa.) for one hour at room temperature. FcγRI bound antibody was also detected using the F(ab′)₂ and all plates were quantified by measuring excitation at 340 nm and emission at 465 nm after an 18 hour incubation with SuperPhosk (Virolabs, Chantilly, Va.)."}, "[2]": {"target": "T2, FcγRI (Fc receptor gamma-chain I, CD64) (UniProt P12314 16-288)", "T2 construct": "also called FcγR1", "T2 sequence (P12314 16-288 limits assumed)": "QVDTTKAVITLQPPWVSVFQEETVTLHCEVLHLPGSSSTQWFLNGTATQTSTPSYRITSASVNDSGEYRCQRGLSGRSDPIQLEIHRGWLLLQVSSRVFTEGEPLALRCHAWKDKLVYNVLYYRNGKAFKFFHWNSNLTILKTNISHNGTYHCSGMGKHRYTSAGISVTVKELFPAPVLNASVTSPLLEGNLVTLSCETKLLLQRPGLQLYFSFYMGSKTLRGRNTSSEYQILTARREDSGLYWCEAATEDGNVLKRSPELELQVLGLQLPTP", "assay": "FcγR ELISA", "procedure": "as §1, §2"}},
  "data": [
    {"binder": "B1", "values": [
      {"measurement": "binding result", "setting": "[1]", "result": "no binding"},
      {"measurement": "fold reduction in binding vs parent antibody (produced in GFI5.0)", "setting": "[2]", "result": "~4", "unit": "fold"}
    ]}
  ]
}
